Sequences and labels used below:
T1: recombinant human LAG3 (Sino Biological Inc.) (human, UniProt P18627 23-450)
T1 construct: Bought recombinant protein; also called CD223; biotinylated recombinant human LAG3
T1 sequence (looked up): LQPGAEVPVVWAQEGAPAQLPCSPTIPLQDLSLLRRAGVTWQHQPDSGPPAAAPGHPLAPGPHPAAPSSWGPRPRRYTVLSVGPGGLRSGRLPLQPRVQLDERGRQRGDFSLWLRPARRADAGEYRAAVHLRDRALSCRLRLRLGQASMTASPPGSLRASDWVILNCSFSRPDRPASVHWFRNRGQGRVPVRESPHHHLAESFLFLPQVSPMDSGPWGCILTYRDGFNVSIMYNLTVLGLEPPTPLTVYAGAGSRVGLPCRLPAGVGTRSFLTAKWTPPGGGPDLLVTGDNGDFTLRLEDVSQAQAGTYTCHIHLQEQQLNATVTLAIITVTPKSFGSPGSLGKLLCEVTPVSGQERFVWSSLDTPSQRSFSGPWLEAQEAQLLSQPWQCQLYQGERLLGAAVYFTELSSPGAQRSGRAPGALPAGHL

B1: DNV3 Fab (Fab, V domains shown)
VH: EVQLVQSGAEVKKPGASVKVSCKASGYTFTSYGISWVRQAPGQGLEWMGWISAYNGNTNYAQKLQGRVTMTTDTSTSTAYMELRSLRSDDTAVYYCARDSSSWWVDAFDIWGQGTMVTVSS
VL: QSVLTQPPSVSAAPGQKVTISCSGSTSNIAINYVSWYQQVPGTVPKLLIYDDDKRPSGIPDRFSGSKSGTSATLDISGLQTGDEAHYYCGVWDNSLLAVLFGGGTSLTVL
notes: Human Fab from a phage library, hexahistidine-tagged, detected through a FLAG tag, made in E. coli HB2151
B2: DNV3.7 Fab (Fab, V domains shown)
VH: EVQLVQSGAEVKKPGASVKVSCKASGYTFTSYGISWVRQAPGQGLEWMGWISAYNGNTNYAQKLQGRVTMTTDTSTSTAYMELRSLRSDDTAVYYCARDSSSWWVDAFDIWGQGTMVTVSS
VL: SYELTQPPSVSEAPRQRVTISCSGSSSNIGSNAVSWYQQVPRKAPKLLVYYDDLLPSGVSDRFSGSKSGTSASLAIRGLQSEDEADYYCAAWDDSLNAFVFGTGTKVTVL
notes: Light-chain-shuffled Fab variant of DNV3
B3: DNV3.15 Fab (Fab, V domains shown)
VH: EVQLVQSGAEVKKPGASVKVSCKASGYTFTSYGISWVRQAPGQGLEWMGWISAYNGNTNYAQKLQGRVTMTTDTSTSTAYMELRSLRSDDTAVYYCARDSSSWWVDAFDIWGQGTMVTVSS
VL: LPVLTQPPSASGTPGQRITISCSGSSSNIGSATVNWYQHLPGTAPKLLIYGDNQRPSGVADRFSGSKSGTSASLEIRGLQSEDEADYYCAAWDGSLDGVMFGGGTRVNVL
notes: as for B2
B4: DNV3.3 Fab (Fab, V domains shown)
VH: EVQLVQSGAEVKKPGASVKVSCKASGYTFTSYGISWVRQAPGQGLEWMGWISAYNGNTNYAQKLQGRVTMTTDTSTSTAYMELRSLRSDDTAVYYCARDSSSWWVDAFDIWGQGTMVTVSS
VL: QSVLTQPPSASGTPGQRVTISCSGSSSNIGNNAVNWYQQLPGKAPKLLIYYDDLLPSGVSDRFSGSKSGTSASLAISGLRSEDEGDYFCAAWDDSLSGQVLFGGGTKLTVL
notes: as for B2
B5: DNV3.2 Fab (Fab, V domains shown)
VH: EVQLVQSGAEVKKPGASVKVSCKASGYTFTSYGISWVRQAPGQGLEWMGWISAYNGNTNYAQKLQGRVTMTTDTSTSTAYMELRSLRSDDTAVYYCARDSSSWWVDAFDIWGQGTMVTVSS
VL: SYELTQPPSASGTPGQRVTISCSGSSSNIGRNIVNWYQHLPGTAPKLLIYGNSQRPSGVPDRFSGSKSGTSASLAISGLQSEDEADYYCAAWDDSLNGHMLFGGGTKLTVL
notes: as for B2
B6: DNV3.13 Fab (Fab, V domains shown)
VH: EVQLVQSGAEVKKPGASVKVSCKASGYTFTSYGISWVRQAPGQGLEWMGWISAYNGNTNYAQKLQGRVTMTTDTSTSTAYMELRSLRSDDTAVYYCARDSSSWWVDAFDIWGQGTMVTVSS
VL: SYVLTQPPSASGTPGQRVTMSCSGRYSNIGGNTVNWYHHLPGTAPTLLIYSNDQRPSGVPDRFSGSKSGTSASLAISGVQSEDEADYYCAAWDDNLNGLVFGTGTKVTVL
notes: as for B2
B7: DNV3.8 Fab (Fab, V domains shown)
VH: EVQLVQSGAEVKKPGASVKVSCKASGYTFTSYGISWVRQAPGQGLEWMGWISAYNGNTNYAQKLQGRVTMTTDTSTSTAYMELRSLRSDDTAVYYCARDSSSWWVDAFDIWGQGTMVTVSS
VL: SYELTQPPSVSEAPRQRATISCSGSRSNIGNNAVSWYQRLPGQAPKLLIYYDTFLPSGVSDRFSGSKSGTSASLTISGLQSDDEADYYCAAWDDSLNGVLFGGGTKLTVQ
notes: as for B2
B8: DNV3.1 Fab (Fab, V domains shown)
VH: EVQLVQSGAEVKKPGASVKVSCKASGYTFTSYGISWVRQAPGQGLEWMGWISAYNGNTNYAQKLQGRVTMTTDTSTSTAYMELRSLRSDDTAVYYCARDSSSWWVDAFDIWGQGTMVTVSS
VL: LPVLTQPPSASGTPGQRVTISCSGSSSNIGGNSVNWYQQLPGTAPKLLIYSDNQRPSGVPDRFSGSKSGTSASLAISGLQSEEEADYYCAAWDDSLNAYVFGPGTKVTVL
B9: DNV3.4 Fab (Fab, V domains shown)
VH: EVQLVQSGAEVKKPGASVKVSCKASGYTFTSYGISWVRQAPGQGLEWMGWISAYNGNTNYAQKLQGRVTMTTDTSTSTAYMELRSLRSDDTAVYYCARDSSSWWVDAFDIWGQGTMVTVSS
VL: SYVLTQPPSTSAAPGQTVTILCFGGGSNLQSNTVNWYRHVSGSAPKLLIHSDDERASGVSPRLSGSKSGGSASLILRGLQPEDEGDYYCAAWDDRLDAYVFGTGTKVTVL
notes: as for B2
B10: DNV3.14 Fab (Fab, V domains shown)
VH: EVQLVQSGAEVKKPGASVKVSCKASGYTFTSYGISWVRQAPGQGLEWMGWISAYNGNTNYAQKLQGRVTMTTDTSTSTAYMELRSLRSDDTAVYYCARDSSSWWVDAFDIWGQGTMVTVSS
VL: PYVLTQPPSVSGAPRQRVTISCSGGSSNIASNAVNWYQQFPGKAPKLLVYYDDLLPSGVSDRFSGSKTGTSASLAISALQSEDEADYFCAAWDDSLNGVLFGGGTKLTVL
notes: as for B2
B11: DNV3.16 Fab (Fab, V domains shown)
VH: EVQLVQSGAEVKKPGASVKVSCKASGYTFTSYGISWVRQAPGQGLEWMGWISAYNGNTNYAQKLQGRVTMTTDTSTSTAYMELRSLRSDDTAVYYCARDSSSWWVDAFDIWGQGTMVTVSS
VL: SYVLTQPPSASGTPGQRVTISCSGGSSNIASNAVNWYQQFPGKAPKLLVYYDDLLPSGVSDRFSGSKTGTSASLAISALQSEDEADYFCAAWDDSLNGVLFGGGTKLTVL
notes: as for B2
B12: DNV3.12 Fab (Fab, V domains shown)
VH: EVQLVQSGAEVKKPGASVKVSCKASGYTFTSYGISWVRQAPGQGLEWMGWISAYNGNTNYAQKLQGRVTMTTDTSTSTAYMELRSLRSDDTAVYYCARDSSSWWVDAFDIWGQGTMVTVSS
VL: SYVLTQPPSASGTPGQRVTISCSGSSSNIGSNIVNWYQHLPGTAPKLLIYGNSQRPSGVSDRFSGSKSGTSASLAISGLQSEDEANYYCAVWDDSLDGHLLFGGGTKLTVL
notes: as for B2
B13: DNV3.5 Fab (Fab, V domains shown)
VH: EVQLVQSGAEVKKPGASVKVSCKASGYTFTSYGISWVRQAPGQGLEWMGWISAYNGNTNYAQKLQGRVTMTTDTSTSTAYMELRSLRSDDTAVYYCARDSSSWWVDAFDIWGQGTMVTVSS
VL: QSVLTQPPSASGTPGQRVTISCSGSTSNIGGNTVNWYQQLPGTAPKLLIYSSNRRPSGVPDRFSGSTSGTSASLAISGLQSEDEADYYCAAWDDSLIAYVFGTGTKVTVL
notes: as for B2
B14: DNV3.9 Fab (Fab, V domains shown)
VH: EVQLVQSGAEVKKPGASVKVSCKASGYTFTSYGISWVRQAPGQGLEWMGWISAYNGNTNYAQKLQGRVTMTTDTSTSTAYMELRSLRSDDTAVYYCARDSSSWWVDAFDIWGQGTMVTVSS
VL: LPVLTQPPSVSGAPRQRVTISCSGGSSNIASNAVNWYQQFPGKAPKLLVYYDDLLPSGVSDRFSGSKTGTSASLAISALQSEDEADYFCAAWDDSLNGVLFGGGTKLTVL
notes: as for B2
B15: DNV1 Fab (Fab, V domains shown)
VH: QVQLQQWGAGLLKPSETLSLTCAVYGGSFSGYYWSWIRQPPGKGLEWIGEINHSGSTNYNPSLKSRVTISVDTSKNQFSLKLSSVTAADTAVYYCARITPRFDAFDIWGQGTMVTVSS
VL: QSVLTQPPSVSAAPGRKVTISCSGSSSNIGTNSVSWYQQFPGTAPKLLIYDNNKRLSRIPDRFSGSKSGTSASLAISGLQSEDEADYYCAAWDDSLTGYVFGTGTKVTVL
notes: as for B1

The text below walks through data of patent US20210115135A1 (ZHEJIANG SHIMAI PHARMACEUTICAL, published 2021).

Values joined by “and” are separate entries in the source; they are usually repeats but may differ in a detail not shown here. Identical values can stand only once. Some results are limits rather than exact numbers.

This test has as its target T1, recombinant human LAG3 (Sino Biological …). In words: ELISA, recombinant human LAG3 coated, Fab detected by anti-FLAG-HRP. As to the method: The hexahistidine-tagged antibodies were expressed in E. coli strain HB2151 and purified from the soluble fraction of periplasm by using the Ni-NTA resin. 7 monoclonal antibodies against human LAG3 were selected by panning a large phage-display library of naïve human antibodies in the format of antigen-binding fragment (Fab). Then ELISA was performed according to standard protocols. Briefly, recombinant human LAG3 (Sino Biological Inc.) was coated on Corning EIA/RIA high-binding 96-well plates (Corning Inc.) at 50 ng per well overnight at 4° C. and blocked with 3% nonfat milk in PBS (pH7.4). Fivefold serially diluted antibodies were added and incubated at room temperature for 2 h. The plates were washed with PBS containing 0.05% Tween 20. Bound antibodies were detected by HRP-conjugated anti-FLAG tag antibody (Sigma-Aldrich). The assay was developed at room temperature with TMB substrate (Sigma-Aldrich) and monitored at 450 nm with a microplate reader.
Broadly, the EC50 is the concentration giving half of the maximal effect. Turning to B1, the EC50 is 6 nM and ≤ 10 nM. Regarding B2, the binding result is listed as “binds”. Take B3: the binding result is “binds”. For B4, the binding result was “binds”. As to B5, the binding result is on record as “binds”. On to B6, for which the binding result is “binds”. For the molecule B7, the binding result is listed as “binds”. On the same count and under the same terms, then B8, with “binds”. Turning to B9, the binding result is “binds”.

B10: the binding result is given as “binds”. In the case of B11, the binding result is “binds”. Turning to B12, the binding result is “binds”. With B13, the binding result is given as “binds”. As for B14, the binding result was “binds”. B15: the EC50 was at most 10 nM.
